Substrate: Nc1ncnc2c1ncn2[C@@H]1O[C@H](COP(=O)(O)OP(=O)(O)OP(=O)(O)O)[C@@H](O)[C@H]1O
Assay: purified protein
Details: conformational turnover per ring (printed as Vmax, maximum turnover rate), reconstituted membranes, 10 mM HEPES pH 7.5, 200 mM NaCl, 2 mM MgCl2, ambient temperature

B1: Bcs1 (mBcs1) (Mus musculus) (protein)
chain: MPFSDFVLALKDNPYFGAGFGLVGVGTALAMARKGAQLGLVAFRRHYMITLEVPARDRSYAWLLSWLTRHSTRTQHLSVETSYLQHESGRISTKFEFIPSPGNHFIWYQGKWIRVERNRDMQMVDLQTGTPWESVTFTALGTDRKVFFNILEEARALALQQEEGKTVMYTAVGSEWRTFGYPRRRRPLDSVVLQQGLADRIVKDIREFIDNPKWYIDRGIPYRRGYLLYGPPGCGKSSFITALAGELEHSICLLSLTDSSLSDDRLNHLLSVAPQQSLVLLEDVDAAFLSRDLAVENPIKYQGLGRLTFSGLLNALDGVASTEARIVFMTTNYIDRLDPALIRPGRVDLKEYVGYCSHWQLTQMFQRFYPGQAPSLAENFAEHVLKATSEISPAQVQGYFMLYKNDPMGAVHNIESLR
Km: 0.2 µM
kcat: ~0.17 s⁻¹
